Results: IntAct's records for PubMed 29039417

B1: Protein PTHB1 (Homo sapiens), Q3SYG4 (parent)
chain: MSLFKARDWWSTILGDKEEFDQGCLCLANVDNSGNGQDKIIVGSFMGYLRIFSPHPAKTGDGAQAEDLLLEVDLRDPVLQVEVGKFVSGTEMLHLAVLHSRKLCVYSVSGTLGNVEHGNQCQMKLMYEHNLQRTACNMTYGSFGGVKGRDLICIQSMDGMLMVFEQESYAFGRFLPGFLLPGPLAYSSRTDSFLTVSSCQQVESYKYQVLAFATDADKRQETEQQKLGSGKRLVVDWTLNIGEQALDICIVSFNQSASSVFVLGERNFFCLKDNGQIRFMKKLDWSPSCFLPYCSVSEGTINTLIGNHNNMLHIYQDVTLKWATQLPHIPVAVRVGCLHDLKGVIVTLSDDGHLQCSYLGTDPSLFQAPNVQSRELNYDELDVEMKELQKIIKDVNKSQGVWPMTEREDDLNVSVVVSPNFDSVSQATDVEVGTDLVPSVTVKVTLQNRVILQKAKLSVYVQPPLELTCDQFTFEFMTPDLTRTVSFSVYLKRSYTPSELEGNAVVSYSRPTDRNPDGIPRVIQCKFRLPLKLICLPGQPSKTASHKITIDTNKSPVSLLSLFPGFASQSDDDQVNVMGFHFLGGARITVLASKTSQRYRIQSEQFEDLWLITNELILRLQEYFEKQGVKDFACSFSGSIPLQEYFELIDHHFELRINGEKLEELLSERAVQFRAIQRRLLARFKDKTPAPLQHLDTLLDGTYKQVIALADAVEENQGNLFQSFTRLKSATHLVILLIALWQKLSADQVAILEAAFLPLQEDTQELGWEETVDAAISHLLKTCLSKSSKEQALNLNSQLNIPKDTSQLKKHITLLCDRLSKGGRLCLSTDAAAPQTMVMPGGCTTIPESDLEERSVEQDSTELFTNHRHLTAETPRPEVSPLQGVSE
partner: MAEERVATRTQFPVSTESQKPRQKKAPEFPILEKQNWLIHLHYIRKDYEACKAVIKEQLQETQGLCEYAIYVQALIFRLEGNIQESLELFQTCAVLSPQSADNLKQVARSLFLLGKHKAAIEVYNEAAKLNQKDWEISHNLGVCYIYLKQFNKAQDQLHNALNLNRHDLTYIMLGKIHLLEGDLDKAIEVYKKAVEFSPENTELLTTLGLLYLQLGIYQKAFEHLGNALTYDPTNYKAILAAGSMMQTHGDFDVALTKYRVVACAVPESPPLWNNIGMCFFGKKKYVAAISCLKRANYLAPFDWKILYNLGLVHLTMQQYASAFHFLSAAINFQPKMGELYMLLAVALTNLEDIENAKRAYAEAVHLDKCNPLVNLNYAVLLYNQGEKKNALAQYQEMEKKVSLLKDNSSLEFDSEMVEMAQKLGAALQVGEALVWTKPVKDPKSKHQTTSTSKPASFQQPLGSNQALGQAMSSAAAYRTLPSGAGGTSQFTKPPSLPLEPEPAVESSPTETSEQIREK

Variants of: B1
Conditions: with bbs4_human BBS4, Q96RK4

effect of a mutation on the interaction	Variant
with no effect	E761A
with no effect	E761K
with no effect	E765K
with no effect	E765A
with no effect	L757A
with no effect	L757K
with no effect	L757E
with no effect	T763A
with no effect	T763K
with no effect	T763E
with no effect	D773A
with no effect	T771A
with no effect	T771E
with no effect	T771K
with no effect	Q764K
with no effect	Q764A
with no effect	Q764E
disrupting interaction strength	E770A
with no effect	E770K
with no effect	Q760E
with no effect	Q760K
with no effect	Q760A
with no effect	W768A
with no effect	W768K
with no effect	W768E
with no effect	P758E
with no effect	P758K

effect of a mutation on the interaction	Variant
with no effect	P758A
with no effect	D762K
with no effect	D762A
with no effect	D762E
with no effect	G767E
with no effect	G767K
with no effect	G767A
with no effect	F756A
with no effect	F756K
with no effect	F756E
with no effect	A755K
with no effect	A755E
with no effect	L759E
with no effect	L759A
with no effect	L759K
with no effect	A754K
with no effect	A754E
with no effect	E769K
with no effect	E769A
disrupting interaction strength	L766C
with no effect	L766A
with no effect	L766K
with no effect	L766E
disrupting interaction strength	V772E
with no effect	V772A
disrupting interaction strength	V772K

Further lines, the variant ahead of its results:

Variant	effect of a mutation on the interaction
Q722E	with no effect
Q722K	with no effect
Q722A	with no effect
E715K	disrupting interaction strength
E715A	with no effect
A750E	with no effect
A750K	with no effect
S745A	with no effect
S745E	disrupting interaction strength
S745K	with no effect
N716E	with no effect
N716K	with no effect
N716A	with no effect
T731E	disrupting interaction strength
T731A	with no effect
T731K	with no effect
T731I	disrupting interaction strength
R726E	with no effect
R726K	with no effect
R726A	with no effect
F724K	with no effect
F724A	with no effect
F724E	disrupting interaction strength
A746K	with no effect

Variant	effect of a mutation on the interaction
A746E	with no effect
E753A	with no effect
E753K	with no effect
K743A	with no effect
K743E	with no effect
Q742E	with no effect
Q742K	with no effect
Q742A	with no effect
L744E	with no effect
L744A	with no effect
L744K	with no effect
W741K	with no effect
W741E	with no effect
W741A	with no effect
T725K	with no effect
T725E	with no effect
T725A	with no effect
L752E	with no effect
L752A	with no effect
L752K	with no effect
I738A	disrupting interaction strength
I738K	disrupting interaction strength
I738E	disrupting interaction strength
K728E	with no effect

Variant	effect of a mutation on the interaction
K728R	disrupting interaction strength
K728A	with no effect
S729A	with no effect
S729E	with no effect
S729K	with no effect
L733A	disrupting interaction strength
L733E	with no effect
L733K	with no effect
D747A	disrupting interaction strength
D747K	with no effect
D747E	with no effect
D747N	disrupting interaction strength
E714K	with no effect
E714A	with no effect
H732A	with no effect
H732E	with no effect
H732K	with no effect
V749K	with no effect
V749E	with no effect
V749A	with no effect
L727K	with no effect
L727A	with no effect
L727P	disrupting interaction strength
L727E	with no effect

Variant	effect of a mutation on the interaction
L720K	with no effect
L720A	with no effect
L720E	with no effect
N719K	with no effect
N719E	with no effect
N719A	disrupting interaction strength
L740E	with no effect
L740K	with no effect
L740A	with no effect
A739K	disrupting interaction strength
A739E	with no effect
L737E	with no effect
L737A	with no effect
L737K	with no effect
Q717E	with no effect
Q717K	with no effect
Q717A	with no effect
F721K	disrupting interaction strength
F721E	with no effect
F721A	with no effect
I751K	with no effect
I751E	with no effect
I751A	with no effect
Q748E	with no effect

Variant	effect of a mutation on the interaction
Q748A	disrupting interaction strength
Q748L	disrupting interaction strength
Q748K	disrupting interaction strength
G718A	with no effect
G718E	with no effect
G718T	disrupting interaction strength
G718K	with no effect
G718D	disrupting interaction strength
G718S	disrupting interaction strength
S723K	disrupting interaction strength
S723A	with no effect
S723E	with no effect
S723P	disrupting interaction strength
I735K	with no effect
I735E	with no effect
I735A	with no effect
V734A	with no effect
V734E	with no effect
V734K	with no effect
L736E	with no effect
L736A	with no effect
L736K	with no effect
A730E	with no effect
A730K	with no effect
